We go through eight molecules from patent US7132248 (dated 2006).

The target of assay [1] is T1, rat GALR2 (rat).
T1 chain: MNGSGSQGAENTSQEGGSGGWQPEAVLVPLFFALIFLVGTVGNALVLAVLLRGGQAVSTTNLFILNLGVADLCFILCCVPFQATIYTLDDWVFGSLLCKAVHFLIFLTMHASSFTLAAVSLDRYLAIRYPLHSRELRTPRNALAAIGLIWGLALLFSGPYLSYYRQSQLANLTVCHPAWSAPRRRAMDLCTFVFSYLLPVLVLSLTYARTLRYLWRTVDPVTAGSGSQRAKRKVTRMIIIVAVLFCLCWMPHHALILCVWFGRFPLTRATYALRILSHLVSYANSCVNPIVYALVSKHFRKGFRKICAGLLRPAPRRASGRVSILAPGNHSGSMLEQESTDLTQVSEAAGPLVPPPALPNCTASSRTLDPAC
The assay can be described thus: competition, radioligand CHO.

Assay [2] addresses T1, rat GALR2. The assay can be described thus: competition, radioligand COS-7.
The target of assay [3] is T2, human GALR2 (human).
T2 chain: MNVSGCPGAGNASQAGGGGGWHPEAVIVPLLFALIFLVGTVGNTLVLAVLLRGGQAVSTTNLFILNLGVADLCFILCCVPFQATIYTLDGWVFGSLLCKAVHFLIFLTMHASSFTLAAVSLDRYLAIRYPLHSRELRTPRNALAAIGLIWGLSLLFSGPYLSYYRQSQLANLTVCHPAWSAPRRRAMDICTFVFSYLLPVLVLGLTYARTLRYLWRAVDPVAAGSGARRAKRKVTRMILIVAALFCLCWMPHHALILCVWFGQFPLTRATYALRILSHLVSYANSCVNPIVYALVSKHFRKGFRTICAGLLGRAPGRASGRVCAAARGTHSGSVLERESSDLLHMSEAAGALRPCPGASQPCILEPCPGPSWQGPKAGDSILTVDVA
Description: competition, radioligand COS-7.

The target in assay [4] is T1, rat GALR2. The assay can be described thus: competition, radioligand COS-7.
Assay [5] deals with T3, rat GALR1 (rat, UniProt Q62805).
T3 chain: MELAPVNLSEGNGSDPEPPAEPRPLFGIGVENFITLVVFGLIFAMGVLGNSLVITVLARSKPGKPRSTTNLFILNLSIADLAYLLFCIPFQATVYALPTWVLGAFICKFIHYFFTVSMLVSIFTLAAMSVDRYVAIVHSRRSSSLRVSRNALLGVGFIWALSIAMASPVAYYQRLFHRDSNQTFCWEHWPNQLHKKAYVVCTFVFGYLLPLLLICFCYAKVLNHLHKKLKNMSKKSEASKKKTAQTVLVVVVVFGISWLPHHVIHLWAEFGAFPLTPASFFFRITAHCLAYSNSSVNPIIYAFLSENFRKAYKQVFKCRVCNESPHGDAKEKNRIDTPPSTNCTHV
Description: competition, radioligand COS-7.

B1: porcine galanin 17-29 (peptide)
chain: ALSATLGLGSPVK
Regarding B1, the Ki in assay [1] is > 1000 nM.

B2: porcine galanin (3-29) (peptide)
chain: RGCALLLASLLLASALSATLGLGSPVK
With B2, in assay [2], the Ki is > 100000 nM.

B3: porcine galanin 1-9 (peptide)
chain: MPRGCALLL
B3: the inhibition constant Ki in assay [1] is > 1000 nM.

B4: porcine galanin 9-29 (peptide)
chain: LASLLLASALSATLGLGSPVK
For the molecule B4, the Ki in assay [1] was > 1000 nM.

B5: galanin (1-16) (peptide)
chain: MPRGCALLLASLLLAS
As to B5, the Ki in assay [2] stood at 1.74 nM; in assay [3] it was 15 nM.

B6: human galanin (protein)
chain: KRGWTLNSAGYLLGPHAVGNHRSFSDKNGLTSKRELRPEDDMKPGSFDRSIPENNIMRTIIEFLSFLHLKEAGALDRLLDLPAAASSEDIERS
Take B6: in assay [1], the Ki was 1.2 nM.

B7: rat galanin (peptide)
chain: MARGSVILLAWLLLVATLSATLGLGMPTK
As for B7, the Ki was 0.52 nM in assay [4] and 1 nM in assay [3].

B8: porcine galanin (1-29) (peptide)
chain: MPRGCALLLASLLLASALSATLGLGSPVK
Consider B8, for which the figures for the Ki in assay [5] and in assay [3] were 0.457 nM and 0.72 nM, respectively.
